Data on 38 sequences can be found in the supplement of paper PMC7877785.

This data set can be described thus: self-splicing fitness, log relative to wild type (ln ratio); higher = more splicing; Tetrahymena group I intron in knt gene, E. coli kanamycin selection, DiMSum; sequences stand for … in CUCUCU…GGAGGGAAAAGUUAUCAGGCAUGCACCUGGUAGCUAGUCUUUAAACCAAUAGAUUGCAUCGGUUUAAAAGGCAAGACCGUCAAAUUGCGGGAAAGGGGUCAACAGCCGUUCAGUACCAAGUCUCAGGGGAAACUUUGAGAUGGCCUUGCAAAGGGUAUGGUAAUAAGCUGACGGACAUGGUCCUAACCACGCAGCCAAGUCCUAAGUCAACAGAUCUUCUGUUGAUAUGGAUGCAGUUCACAGACUAAAUGUCGGUCGGGGAAGAUGUAUUCUUCUCAUAAGAUAUAGUCGGACCUCUCCUUAAUGGGAGCUAGCGGAUGAAGUGAUGCAACACUGGAGCCGCUGGGAACUAAUUUGUAUGCGAAAGUAUAUUGAUUAGUUUUGGAGUACUCGUGGUCG
An outline of the steps:
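Six replicate transformations of E. coli BL21(DE3) with a pET-22b(+) library were grown overnight at 37°C or 30°C. The library randomised all eight P1ex-region intron nucleotides, the intron lying in the knt kanamycin-resistance gene, and plates were LB agar with or without 25 μg/mL kanamycin plus 100 μg/mL carbenicillin, 50 μM IPTG and 0.2% rhamnose. Pooled colonies were amplicon-sequenced on an Illumina HiSeq 2500, and fitness is the DiMSum error-weighted combination of wild-type-normalised replicate fold changes, kanamycin versus none.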

± gives the uncertainty stated by the source.

For AAUAAGCAAUAUUACGACAG, the “self-splicing fitness (ln)” value (30 °C) was -1.64 ± 0.13 and the “self-splicing fitness (ln)” value (37 °C) is -0.432 ± 0.14.

On to GUACAGCAAUAUUACGACAU, for which the “self-splicing fitness (ln)” value was -0.299 ± 0.012 (30 °C) and 0.127 ± 0.032 (37 °C). The matching figures for GCAUAGCAAUAUUACGAGGC: -3.26 ± 0.43 and -1.27 ± 0.36.

Turning to CUAUAGCAAUAUUACGGCAC, the “self-splicing fitness (ln)” value reads like this: (30 °C) -2.18 ± 0.24; (37 °C) -1.09 ± 0.42. The like results for AUGUAGCAAUAUUACGGCGG were, in that order, -0.915 ± 0.19 and -1.14 ± 0.23. The matching figures for AAGAAGCAAUAUUACGUUUA: -1.62 ± 0.074 and -1.01 ± 0.077. With UAUUAGCAAUAUUACGCAAG, the “self-splicing fitness (ln)” value was -2.29 ± 0.16 (30 °C) and -1.8 ± 0.18 (37 °C).

For GACAAGCAAUAUUACGUUGG, the “self-splicing fitness (ln)” value by setting is: (30 °C) -3.26 ± 0.11; (37 °C) -2.56 ± 0.14. The like results for GACAAGCAAUAUUACGCGAG were, in that order, -1.25 ± 0.11 and -2.03 ± 0.15. The like results for CCAGAGCAAUAUUACGCGGC were, in that order, -3.88 ± 0.39 and -2.96 ± 0.24. The matching figures for GCAGAGCAAUAUUACGUACA: -2.86 ± 0.28 and -0.806 ± 0.24. In the case of GUUCAGCAAUAUUACGAAAC, the “self-splicing fitness (ln)” value (30 °C) is -1.48 ± 0.23 and the “self-splicing fitness (ln)” value (37 °C) is -0.734 ± 0.22.

As for CCUUAGCAAUAUUACGAGGA, the “self-splicing fitness (ln)” value reads like this: (30 °C) -2.8 ± 0.25; (37 °C) -1.69 ± 0.27. The matching figures for UAUUAGCAAUAUUACGUCGG: -1.21 ± 0.12 and -0.795 ± 0.15. CGUCAGCAAUAUUACGGAGU: the “self-splicing fitness (ln)” value is -3.45 ± 0.17 (30 °C) and -2.55 ± 0.18 (37 °C). The matching figures for AUCUAGCAAUAUUACGACCU: -0.471 ± 0.11 and 0.729 ± 0.12.

As to CGUCAGCAAUAUUACGGCCA, the “self-splicing fitness (ln)” value (30 °C) is -0.937 ± 0.083 and the “self-splicing fitness (ln)” value (37 °C) was found to be 0.106 ± 0.097. The matching figures for CGUAAGCAAUAUUACGCGCG: -2.79 ± 0.16 and -1.71 ± 0.23.

As for CUUGAGCAAUAUUACGGGCC, the “self-splicing fitness (ln)” value (37 °C) is -2.81 ± 0.34. GCGUAGCAAUAUUACGGGUU: the “self-splicing fitness (ln)” value is, setting by setting: (30 °C) -2.12 ± 0.12; (37 °C) -1.32 ± 0.15.

As to GGUUAGCAAUAUUACGCUUU, the “self-splicing fitness (ln)” value reads like this: (30 °C) -2.01 ± 0.13; (37 °C) 0.0831 ± 0.14. Take AACCAGCAAUAUUACGGCCU: the “self-splicing fitness (ln)” value reads like this: (30 °C) 0.12 ± 0.075; (37 °C) -0.853 ± 0.082. For the sequence GCGGAGCAAUAUUACGACCA, under “37 °C”, the “self-splicing fitness (ln)” value is -1.68 ± 0.41. For the sequence CAAUAGCAAUAUUACGCUCU, the “self-splicing fitness (ln)” value (30 °C) is -3.28 ± 0.24 and the “self-splicing fitness (ln)” value (37 °C) was -1.88 ± 0.17. Consider CUAAAGCAAUAUUACGAGAC, for which the “self-splicing fitness (ln)” value is -3.33 ± 0.18 (30 °C) and -0.499 ± 0.16 (37 °C). The like results for UGAGAGCAAUAUUACGUCCA were, in that order, -1.04 ± 0.14 and -0.218 ± 0.17. The like results for UCCUAGCAAUAUUACGUUAG were, in that order, -3.49 ± 0.2 and -1.92 ± 0.23.

Consider GUGUAGCAAUAUUACGGUUC, for which the “self-splicing fitness (ln)” value by setting is: (30 °C) -1.04 ± 0.13; (37 °C) -0.373 ± 0.16.

In the case of CAUUAGCAAUAUUACGGUAA, the “self-splicing fitness (ln)” value reads like this: (30 °C) -2.31 ± 0.14; (37 °C) -2.26 ± 0.14.

In the case of UCGGAGCAAUAUUACGUACG, the “self-splicing fitness (ln)” value (30 °C) is -1.21 ± 0.14 and the “self-splicing fitness (ln)” value (37 °C) is -0.867 ± 0.18.

For the sequence AGCGAGCAAUAUUACGGCGU, the “self-splicing fitness (ln)” value was -0.762 ± 0.11 (30 °C) and -0.808 ± 0.093 (37 °C). The matching figures for ACAAAGCAAUAUUACGACAC: -1.54 ± 0.084 and -0.962 ± 0.1. For AACGAGCAAUAUUACGAUUG, the “self-splicing fitness (ln)” value is -4.09 ± 0.23 (30 °C) and -1.56 ± 0.23 (37 °C). The matching figures for AAAUAGCAAUAUUACGUGGA: -3.16 ± 0.13 and -2.11 ± 0.099. Consider ACGUAGCAAUAUUACGCCCU, for which the “self-splicing fitness (ln)” value was -0.282 ± 0.11 (30 °C) and -0.245 ± 0.095 (37 °C). In the case of UUCCAGCAAUAUUACGAACC, the “self-splicing fitness (ln)” value by setting is: (30 °C) -2.74 ± 0.42; (37 °C) 0.108 ± 0.43. The like results for UCAUAGCAAUAUUACGGGUG were, in that order, -1.94 ± 0.093 and -0.795 ± 0.085. Regarding GGCAAGCAAUAUUACGCCGA, the “self-splicing fitness (ln)” value (30 °C) was -2.14 ± 0.32 and the “self-splicing fitness (ln)” value (37 °C) is -0.337 ± 0.25.
